The supplement of paper PMC7125110
± gives the standard error. Fewer inactive variants are shown than the library holds.

B1: glmS ribozyme (parent)
chain: AUAAAAGCGCCAGAACUACAGAAAUGUAGUUGACGAGGAGGAGGUUUAUCGAAUUUUCGGCGGAUGCCUCCAAA

Experiments:
Settings in all cases: with glucosamine-6-phosphate
glucosamine-6-phosphate [1] = variants of: B1; experiment: self-cleavage kobs at 40 uM GlcN6P; higher = faster cleavage; RNA array
Summary of the method: (§1)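 Barcoded ribozyme variants were transcribed in situ on sequenced MiSeq chips by E. coli RNA polymerase. At 37 °C, a hybridised Cy3 probe tracked them while glucosamine-6-phosphate (40 μM to 10 mM) in HEPES/KCl/Mg(OAc)2 buffer flowed in and tiles were imaged over ~14 h. Per-tile medians of signals normalised to baseline and to non-cleaving reference variants were fit to one- or two-exponential decays, giving kobs. kcat and KM came from weighted Michaelis–Menten fits across concentrations.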

glucosamine-6-phosphate [2] = variants of: B1; experiment: self-cleavage kobs at 640 uM GlcN6P; higher = faster cleavage; RNA array
Summary of the method: as §1

glucosamine-6-phosphate [3] = variants of: B1; experiment: self-cleavage kobs at 2500 uM GlcN6P; higher = faster cleavage; RNA array
Summary of the method: as §1

glucosamine-6-phosphate [4] = variants of: B1; experiment: self-cleavage kobs at 10000 uM GlcN6P; higher = faster cleavage; RNA array
Summary of the method: as §1

glucosamine-6-phosphate [5] = variants of: B1; experiment: self-cleavage kobs at 160 uM GlcN6P; higher = faster cleavage; RNA array
Summary of the method: as §1

Variant | self-cleavage kobs at 40 uM GlcN6P (glucosamine-6-phosphate [1]) | self-cleavage kobs at 640 uM GlcN6P (glucosamine-6-phosphate [2]) | self-cleavage kobs at 2500 uM GlcN6P (glucosamine-6-phosphate [3]) | self-cleavage kobs at 10000 uM GlcN6P (glucosamine-6-phosphate [4]) | self-cleavage kobs at 160 uM GlcN6P (glucosamine-6-phosphate [5])
A15C C50G A53G G62A C70G | 0.000105 ± 3e-05 s⁻¹ | 8.17e-05 ± 2.4e-05 s⁻¹ | 0.000125 ± 4.1e-05 s⁻¹ | 8.78e-05 ± 1.9e-05 s⁻¹ | –
A14G C16U G41U | 0.000207 ± 7.3e-05 s⁻¹ | – | – | 0.00243 ± 0.00096 s⁻¹ | –
A15C U30A G41C U45A C58U | < 1e-05 s⁻¹ | – | – | – | –
A15C G37A G41C U69G | < 1e-05 s⁻¹ | – | – | < 1e-05 s⁻¹ | –
A14U C50G C67U | 0.00027 ± 6.3e-05 s⁻¹ | 0.000192 ± 5.6e-05 s⁻¹ | 0.000193 ± 5.8e-05 s⁻¹ | 0.000112 ± 1.9e-05 s⁻¹ | 0.000222 ± 7e-05 s⁻¹
C16A G43U C68G C71U | < 1e-05 s⁻¹ | – | – | – | –
G13U G59C | < 1e-05 s⁻¹ | < 1e-05 s⁻¹ | – | < 1e-05 s⁻¹ | –
G13U A36U C50U C70U | 7.67e-05 ± 2.7e-05 s⁻¹ | – | – | – | –
G13U C16G U31G C34U | < 1e-05 s⁻¹ | – | – | – | –
A14G C50G C68U U69A C71G | 0.000105 ± 1.7e-05 s⁻¹ | – | 0.000379 ± 8.1e-05 s⁻¹ | 0.000199 ± 5.1e-05 s⁻¹ | –
A14C A36C G63A U65C | < 1e-05 s⁻¹ | – | – | < 1e-05 s⁻¹ | < 1e-05 s⁻¹
G13C G43U | < 1e-05 s⁻¹ | < 1e-05 s⁻¹ | < 1e-05 s⁻¹ | < 1e-05 s⁻¹ | –
A14C G43U | < 1e-05 s⁻¹ | < 1e-05 s⁻¹ | < 1e-05 s⁻¹ | – | < 1e-05 s⁻¹
A14G A53G C58U U65C C71U | < 1e-05 s⁻¹ | – | – | – | –
A15C G40A U49G C71U | < 1e-05 s⁻¹ | – | – | 4.71e-05 ± 1.3e-05 s⁻¹ | –
A14U A53U C71U | 9.83e-05 ± 2.7e-05 s⁻¹ | 0.000509 ± 8.6e-05 s⁻¹ | 0.00145 ± 0.00032 s⁻¹ | 0.00546 ± 0.0013 s⁻¹ | 0.00021 ± 4.5e-05 s⁻¹
A15U A36G U69G | 3.94e-05 ± 1.7e-05 s⁻¹ | – | – | – | –
A15G G38U U47A C68G | 9.09e-05 ± 3.3e-05 s⁻¹ | – | – | – | –
A14G C16G G38U C50G C67A | 0.000102 ± 1.6e-05 s⁻¹ | – | – | 9.71e-05 ± 2.1e-05 s⁻¹ | –
A14G C50G C71U | 0.000639 ± 0.00021 s⁻¹ | 0.00131 ± 0.00027 s⁻¹ | – | 4.82e-05 ± 2e-05 s⁻¹ | 0.000245 ± 7.3e-05 s⁻¹
A15G G63C | < 1e-05 s⁻¹ | < 1e-05 s⁻¹ | < 1e-05 s⁻¹ | < 1e-05 s⁻¹ | < 1e-05 s⁻¹
A14C U49A G63A | < 1e-05 s⁻¹ | – | – | – | –
A14U G35C | < 1e-05 s⁻¹ | < 1e-05 s⁻¹ | < 1e-05 s⁻¹ | < 1e-05 s⁻¹ | < 1e-05 s⁻¹
A14C C61G | < 1e-05 s⁻¹ | – | – | < 1e-05 s⁻¹ | –

Variant | self-cleavage kobs at 40 uM GlcN6P (glucosamine-6-phosphate [1]) | self-cleavage kobs at 640 uM GlcN6P (glucosamine-6-phosphate [2]) | self-cleavage kobs at 2500 uM GlcN6P (glucosamine-6-phosphate [3]) | self-cleavage kobs at 10000 uM GlcN6P (glucosamine-6-phosphate [4]) | self-cleavage kobs at 160 uM GlcN6P (glucosamine-6-phosphate [5])
A14C U55G | 9.05e-05 ± 2.8e-05 s⁻¹ | – | – | 0.00435 ± 0.0012 s⁻¹ | –
A14G G40A A53U | 0.000596 ± 0.00013 s⁻¹ | – | – | 0.0182 ± 0.004 s⁻¹ | –
A14G A36U G43U | < 1e-05 s⁻¹ | – | – | < 1e-05 s⁻¹ | –
G13C G40U A53U G59U | < 1e-05 s⁻¹ | – | – | < 1e-05 s⁻¹ | –
G13U A15U G43C U57C C58G | < 1e-05 s⁻¹ | – | – | – | –
A14U G51A | < 1e-05 s⁻¹ | – | – | < 1e-05 s⁻¹ | –
G13C G51C G63C | < 1e-05 s⁻¹ | – | – | – | –
G13C G60A | < 1e-05 s⁻¹ | < 1e-05 s⁻¹ | < 1e-05 s⁻¹ | < 1e-05 s⁻¹ | < 1e-05 s⁻¹
A15G C16G A33G A52G G60A | < 1e-05 s⁻¹ | – | – | < 1e-05 s⁻¹ | < 1e-05 s⁻¹
A15U C34G G66U C71U | < 1e-05 s⁻¹ | – | – | < 1e-05 s⁻¹ | –
A14G U69A | 0.000118 ± 2.8e-05 s⁻¹ | 0.000315 ± 9.3e-05 s⁻¹ | 0.000142 ± 2.2e-05 s⁻¹ | 0.000397 ± 9.9e-05 s⁻¹ | 0.000124 ± 2.5e-05 s⁻¹
C16A A39U G51U | < 1e-05 s⁻¹ | – | – | – | –
A14G C16U | 0.00189 ± 0.00023 s⁻¹ | 0.00488 ± 0.00082 s⁻¹ | 0.00522 ± 0.0012 s⁻¹ | 0.0726 ± 0.02 s⁻¹ | 0.0032 ± 0.0007 s⁻¹
A14G A53C C71U | 0.000387 ± 8.7e-05 s⁻¹ | 0.00168 ± 0.00056 s⁻¹ | 0.00736 ± 0.003 s⁻¹ | 0.00798 ± 0.002 s⁻¹ | –
A15C C16G | 5.89e-05 ± 1.4e-05 s⁻¹ | 0.000438 ± 5.6e-05 s⁻¹ | – | 0.00295 ± 0.00045 s⁻¹ | –
A15C U56G | 6.11e-05 ± 1.3e-05 s⁻¹ | 0.000276 ± 8.7e-05 s⁻¹ | 0.0011 ± 0.00025 s⁻¹ | 0.00228 ± 0.00048 s⁻¹ | 7.19e-05 ± 1.9e-05 s⁻¹
A15U A36U G60A | < 1e-05 s⁻¹ | – | – | – | –
A14G A39G G41A U55G U69C A73U | < 1e-05 s⁻¹ | – | – | – | –
A14U C70U | 0.000285 ± 2.5e-05 s⁻¹ | 0.00104 ± 0.00018 s⁻¹ | 0.00724 ± 0.0015 s⁻¹ | – | 0.000441 ± 6.1e-05 s⁻¹
A15U A42C C68G | < 1e-05 s⁻¹ | – | – | – | –
A14G A52G | 9.65e-05 ± 1.7e-05 s⁻¹ | 0.00106 ± 0.00018 s⁻¹ | 0.00234 ± 0.00051 s⁻¹ | 0.00467 ± 0.001 s⁻¹ | 0.000152 ± 4e-05 s⁻¹
G13C U47C | < 1e-05 s⁻¹ | – | – | – | < 1e-05 s⁻¹
A14G U30A | 0.000672 ± 0.00011 s⁻¹ | 0.00759 ± 0.0013 s⁻¹ | 0.0384 ± 0.012 s⁻¹ | 0.017 ± 0.0042 s⁻¹ | 0.00098 ± 0.00024 s⁻¹
